B1: ASC^CARD (106-195, W169G)-5xGSS-caspase-1^CARD (1-95, G20K) fusion protein (other)
chain: SAAKPGLHFIDQHRAALIARVTNVEWLLDALYGKVLTDEQYQAVRAEPTNPSKMRKLFSFTPAGNWTCKDLLLQALRESQSYLVEDLERSGSSGSSGSSGSSGSSMADKVLKEKRKLFIRSMGEKTINGLLDELLQTRVLNKEEMEKVKRENATVMDKTRALIDSVIPKGAQACQICITYICEEDSYLAGTLGLSADQTS
notes: ASC (apoptosis-associated speck-like protein containing a CARD), CARD, residues 106-195, type IIa mutant W169G; 5x GSS linker, written out from the printed '5XGSS'; caspase-1, CARD, residues 1-95, type IIb mutant G20K; Four fusion chains form an octamer of CARDs; also called ASC^CARD-caspase-1^CARD octamer; ASC^CARD-caspase-1^CARD fusion protein; source: E. coli BL21 (DE3), purified (Ni-NTA, TEV …)
B2: ASC^CARD (106-195, W169G), as it stands in the fusion m16 (domain or fragment, UniProt Q9ULZ3 106-195, looked up)
chain: SAAKPGLHFIDQHRAALIARVTNVEWLLDALYGKVLTDEQYQAVRAEPTNPSKMRKLFSFTPAGNWTCKDLLLQALRESQSYLVEDLERS
notes: ASC (apoptosis-associated speck-like protein containing a CARD), CARD, residues 106-195, type IIa mutant W169G; Joined on one chain with m18 through a 5x GSS linker; source: E. coli BL21 (DE3), purified as part of the fusion protein m16
B3: NLRP1 His-MBP-3C-UPA (S1213-P1364), uncleaved (domain or fragment, human, UniProt Q9C000-1 1213-1364, looked up)
chain: SPLGVLLKMIHNALRFIPVTSVVLLYHRVHPEEVTFHLYLIPSDCSIRKAIDDLEMKFQFVRIHKPPPLTPLYMGCRYTVSGSGSGMLEILPKELELCYRSPGEDQLFSEFYVGHLGSGIRLQVKDKKDETLVWEALVKPGDLMPATTLIPP
notes: NLRP1, human, UPA S1213-P1364, isoform 1 (UniProt Q9C000-1); also called oligomeric MBP-UPA protein; source: E. coli BL21 (DE3), purified (amylose resin, Superose 6); not shown: His, N-terminal, kept; MBP, N-terminal, kept
B4: CARD8 His-MBP-3C-UPA (S297-P446), uncleaved (domain or fragment, human, UniProt Q9Y2G2-5 297-446, looked up)
chain: SLMGILLRIASGTRLSIPITSNTLIYYHPHPEDIKFHLYLVPSDALLTKAIDDEEDRFHGVRLQTSPPMEPLNFGSSYIVSNSANLKVMPKELKLSYRSPGEIQHFSKFYAGQMKEPIQLEITEKRHGTLVWDTEVKPVDLQLVAASAPP
notes: CARD8, human, UPA S297-P446; numbers count on: T60 isoform, UniProt Q9Y2G2-5; Made by a stop codon in the CARD8 His-MBP-3C-UPA-CARD plasmid; also called oligomeric MBP-UPA protein; source: E. coli BL21 (DE3), purified (amylose resin, Superose 6); not shown: His, N-terminal, kept; MBP, N-terminal, kept
B5: caspase-1^CARD (1-95, G20K), as it stands in the fusion m16 (domain or fragment, UniProt P29466 1-95, looked up)
chain: MADKVLKEKRKLFIRSMGEKTINGLLDELLQTRVLNKEEMEKVKRENATVMDKTRALIDSVIPKGAQACQICITYICEEDSYLAGTLGLSADQTS
notes: caspase-1, CARD, residues 1-95, type IIb mutant G20K; Joined on one chain with m17 through a 5x GSS linker; source: E. coli BL21 (DE3), purified as part of the fusion protein m16

Columns and labels:
[1] = molecular target: CARD8^CARD (P446-L537, A452C), MBP tag cleaved (human) (UniProt Q9Y2G2); assay: negative stain EM of filament formation; purified MBP-fused protein cleaved with 3C protease for 3 h at 37 °C at different concentrations (0.1 to 30 µM), then negatively stained with 1% uranyl formate and imaged
[2] = molecular target: the molecule itself; assay: SEC-MALS; Superdex 200 in 25 mM Tris-HCl pH 8.0, 150 mM NaCl, 2 mM DTT, three-angle light scattering and refractive index detectors, 0.5 mL/min
[3] = molecular target: the molecule itself; assay: cryo-EM structure; ASC^CARD-caspase-1^CARD octamer; 25 mM Tris-HCl pH 8.0, 150 mM NaCl, 2 mM DTT; 3.9 Å map
[4] = molecular target: B5; assay: as above; conditions: both partners purified
[5] = molecular target: the molecule itself; assay: SEC; preparative SEC of amylose-purified His-MBP fusions (Superdex 200 for MBP-CARD, Superose 6 for MBP-UPA and MBP-NLRP1-CT); 25 mM Tris-HCl pH 7.5, 150 mM NaCl, 1 mM TCEP

Molecule	binding result [3]	binding result [5]	other results
CARD8^CARD (P446-L537, A452C), MBP tag cleaved (from UniProt Q9Y2G2-5 446-537) (domain or fragment)			minimum concentration required to form filaments [1]: 15 µM
B1			stoichiometry N [2]: 4
B2	binds		binding result [4]: binds
B3		binds	
B4		binds	
B5	binds		

— paper PMC7794386, “Mechanism of filament formation in UPA-promoted CARD8 and NLRP1 inflammasomes” (Nature Communications, 2021)
